This is an account of results in paper PMC9135340.

Where two headings read alike, the source gives them in different places.

The target of assay [1] is PTCH2 (Homo sapiens) (UniProt Q9Y6C5). The following applies: cited from earlier work.
The target of assay [2] is PTCH1 (Homo sapiens) (UniProt Q13635). The settings on record: cited from earlier work.
Assay [3] has the same target. The settings on record: cited from earlier work. This is another data set of the same source.
Assay [4] has as its target PTCH2 (Homo sapiens) (UniProt Q9Y6C5). The following applies: cited from earlier work. This is another data set of the same source.
Assay [5] has the same target. The settings on record: cited from earlier work. The source holds these as a separate data set.
For assay [6], the target named is PTCH1 (Homo sapiens) (UniProt Q13635). The following applies: cited from earlier work. The source holds these as a separate data set.
In assay [7] the target is recombinant PTCH2 (amino acids 79 to 379; putative loop 1 ligand binding region) (UniProt Q9Y6C5). As to the kind of experiment: SPR; Biacore T100; rPTCH2-His immobilised on a nickel chip; rTRP120-TR or rTrx injected at 2-fold dilutions (800nM to 25nM); three independent experiments. Background: Surface plasmon resonance follows binding to a sensor surface in real time, without labels.
recombinant PTCH2 (amino acids 79 to 379; putative loop 1 ligand binding region), sequence (Q9Y6C5 79-379): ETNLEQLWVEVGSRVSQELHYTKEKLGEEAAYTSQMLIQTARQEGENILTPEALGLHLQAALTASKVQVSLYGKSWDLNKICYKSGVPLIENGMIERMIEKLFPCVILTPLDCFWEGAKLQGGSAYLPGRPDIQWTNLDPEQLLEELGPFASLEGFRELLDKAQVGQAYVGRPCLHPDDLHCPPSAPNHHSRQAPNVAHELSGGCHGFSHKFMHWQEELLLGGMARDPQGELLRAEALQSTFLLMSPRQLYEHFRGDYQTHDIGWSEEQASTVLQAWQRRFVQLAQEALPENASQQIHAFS

PTCH1 (Homo sapiens), sequence (Q13635 whole entry, the tested form may be a part): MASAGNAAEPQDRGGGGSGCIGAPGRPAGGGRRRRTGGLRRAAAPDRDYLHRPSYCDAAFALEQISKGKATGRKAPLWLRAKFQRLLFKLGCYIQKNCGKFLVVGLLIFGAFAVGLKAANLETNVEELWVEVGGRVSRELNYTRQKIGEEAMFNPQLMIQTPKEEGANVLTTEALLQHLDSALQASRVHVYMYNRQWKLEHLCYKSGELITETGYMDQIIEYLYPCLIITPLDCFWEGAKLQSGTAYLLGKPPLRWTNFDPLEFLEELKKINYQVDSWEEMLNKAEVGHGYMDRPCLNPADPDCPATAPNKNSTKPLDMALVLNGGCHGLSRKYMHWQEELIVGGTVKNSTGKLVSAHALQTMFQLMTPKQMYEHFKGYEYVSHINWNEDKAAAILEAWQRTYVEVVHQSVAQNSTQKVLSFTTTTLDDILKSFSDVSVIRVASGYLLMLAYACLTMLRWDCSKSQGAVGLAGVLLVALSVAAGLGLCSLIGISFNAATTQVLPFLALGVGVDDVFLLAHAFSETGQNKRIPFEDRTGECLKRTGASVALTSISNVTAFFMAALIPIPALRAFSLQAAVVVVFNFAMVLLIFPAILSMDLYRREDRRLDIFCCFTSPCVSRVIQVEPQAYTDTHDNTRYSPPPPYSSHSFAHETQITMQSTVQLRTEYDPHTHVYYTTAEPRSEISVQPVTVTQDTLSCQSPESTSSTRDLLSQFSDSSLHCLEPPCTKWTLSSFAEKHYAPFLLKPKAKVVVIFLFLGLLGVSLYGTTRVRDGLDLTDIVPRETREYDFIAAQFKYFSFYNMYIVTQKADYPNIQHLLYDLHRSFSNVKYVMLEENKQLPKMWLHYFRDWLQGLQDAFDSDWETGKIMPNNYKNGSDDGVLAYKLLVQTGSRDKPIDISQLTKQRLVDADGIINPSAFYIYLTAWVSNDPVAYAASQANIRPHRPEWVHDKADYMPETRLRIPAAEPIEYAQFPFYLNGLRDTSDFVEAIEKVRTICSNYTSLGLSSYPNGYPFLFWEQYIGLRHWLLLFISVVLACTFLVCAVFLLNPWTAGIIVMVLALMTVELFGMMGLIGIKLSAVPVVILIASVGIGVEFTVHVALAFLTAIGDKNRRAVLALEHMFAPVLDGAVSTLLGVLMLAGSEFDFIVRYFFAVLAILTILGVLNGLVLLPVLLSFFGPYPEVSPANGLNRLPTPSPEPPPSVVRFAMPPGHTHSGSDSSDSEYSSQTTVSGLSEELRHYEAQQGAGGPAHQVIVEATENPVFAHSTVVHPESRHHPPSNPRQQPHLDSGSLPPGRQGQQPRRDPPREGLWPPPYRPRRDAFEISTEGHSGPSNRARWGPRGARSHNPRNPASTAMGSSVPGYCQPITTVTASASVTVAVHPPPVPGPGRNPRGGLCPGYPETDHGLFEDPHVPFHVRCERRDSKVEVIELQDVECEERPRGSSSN
PTCH2 (Homo sapiens), sequence (Q9Y6C5 whole entry): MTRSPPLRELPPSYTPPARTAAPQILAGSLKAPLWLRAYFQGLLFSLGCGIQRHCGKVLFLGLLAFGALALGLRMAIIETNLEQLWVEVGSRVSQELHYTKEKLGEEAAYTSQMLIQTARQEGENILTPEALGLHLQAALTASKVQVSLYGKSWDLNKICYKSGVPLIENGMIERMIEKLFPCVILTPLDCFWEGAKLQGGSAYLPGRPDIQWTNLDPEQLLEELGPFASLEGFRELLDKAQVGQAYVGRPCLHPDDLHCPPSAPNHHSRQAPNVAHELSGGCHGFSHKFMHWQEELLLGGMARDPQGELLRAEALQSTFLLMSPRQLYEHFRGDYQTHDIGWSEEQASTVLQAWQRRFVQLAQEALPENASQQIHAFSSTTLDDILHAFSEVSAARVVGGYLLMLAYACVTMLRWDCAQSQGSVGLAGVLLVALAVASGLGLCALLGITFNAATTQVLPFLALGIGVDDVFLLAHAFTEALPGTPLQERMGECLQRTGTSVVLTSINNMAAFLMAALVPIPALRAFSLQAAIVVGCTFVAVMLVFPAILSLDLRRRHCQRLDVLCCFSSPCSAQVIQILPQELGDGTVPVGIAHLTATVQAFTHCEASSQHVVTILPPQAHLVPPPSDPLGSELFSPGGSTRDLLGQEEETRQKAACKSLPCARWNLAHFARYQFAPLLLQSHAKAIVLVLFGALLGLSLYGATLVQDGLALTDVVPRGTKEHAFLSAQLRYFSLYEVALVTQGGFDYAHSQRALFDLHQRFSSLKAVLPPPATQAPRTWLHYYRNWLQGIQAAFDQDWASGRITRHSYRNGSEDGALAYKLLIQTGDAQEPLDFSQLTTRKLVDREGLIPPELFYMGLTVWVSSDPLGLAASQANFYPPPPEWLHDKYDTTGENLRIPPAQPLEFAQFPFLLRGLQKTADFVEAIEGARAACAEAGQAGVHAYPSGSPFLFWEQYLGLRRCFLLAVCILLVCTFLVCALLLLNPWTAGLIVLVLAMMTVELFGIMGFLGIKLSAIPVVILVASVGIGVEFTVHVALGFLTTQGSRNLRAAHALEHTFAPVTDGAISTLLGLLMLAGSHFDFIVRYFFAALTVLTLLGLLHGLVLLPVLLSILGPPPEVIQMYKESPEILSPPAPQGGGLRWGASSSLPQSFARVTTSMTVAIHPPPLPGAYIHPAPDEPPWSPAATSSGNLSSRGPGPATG
Ihh, sequence (Q14623 28-202): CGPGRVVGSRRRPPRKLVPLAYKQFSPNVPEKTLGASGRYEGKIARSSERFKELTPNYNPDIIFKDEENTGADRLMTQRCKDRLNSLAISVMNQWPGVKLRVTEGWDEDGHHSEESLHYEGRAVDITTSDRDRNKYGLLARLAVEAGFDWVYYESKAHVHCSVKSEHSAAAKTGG

For orientation: Kd means the equilibrium constant for the complex coming apart. As for Dhh (from UniProt O43323), the Kd in the assay with PTCH2 (Homo sapiens) [1] was 0.6 nM; in the assay with PTCH1 (Homo sapiens) [2], 2.6 nM. For the substance Ihh (from UniProt Q14623), the Kd was 1 nM in the assay with PTCH1 (Homo sapiens) [3] and 0.4 nM with PTCH2 (Homo sapiens) [4]. For the substance Shh (from UniProt Q15465), the results for the dissociation constant (Kd) with PTCH2 (Homo sapiens) [5] and with PTCH1 (Homo sapiens) [6] were 1.8 nM and 1 nM, respectively. On to “recombinant TRP120 tandem repeat domain (rTRP120-TR) (domain or fragment)”, for which, in assay [7], the dissociation constant Kd is 4.4 nM.
